The target of data set [1] is IL-6 (mature human interleukin-6) (Homo sapiens) (UniProt P05231). In words: filter.
The target in data set [2] is T1, IL-6 (Macaca fascicularis) (UniProt P79341).
T1 sequence: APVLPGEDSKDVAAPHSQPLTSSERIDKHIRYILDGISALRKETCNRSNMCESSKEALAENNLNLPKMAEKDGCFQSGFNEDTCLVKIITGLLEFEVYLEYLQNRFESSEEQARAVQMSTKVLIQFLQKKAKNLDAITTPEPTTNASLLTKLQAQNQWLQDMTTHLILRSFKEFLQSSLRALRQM
In words: cell_activity. As to conditions: Bn-dU at 7,8,14,15,22,23,27,30; PE-dU at 9; Nap-dU at 12; 2'-OMe at C3,G6,A16,A19,C20,C28; gene reporter assay. (A reporter such as luciferase makes a cellular process visible.)

For data set [3], the target named is IL-6 (mature human interleukin-6) (Homo sapiens) (UniProt P05231). In words: cell_activity. The note with it: 2'-OMe at C3,G6,A16,A19,C20,C28, STAT3 gene reporter assay.
Data set [4] addresses T1, IL-6 (Macaca fascicularis). In words: filter. As to conditions: Bn-dU at 7,8,14,15,22,23,27,30; PE-dU at 9; Nap-dU at 12; 2'-OMe at C3,G6,A16,A19,C20,C28.

As to “GGCAGGUUUGGUAUUAACACGUUAAGUCGUGGG [2573-20_14]”, in data set [1] (all U are Bn-dU), the dissociation constant Kd (as a rule, the constant that tells how readily two partners part at equilibrium) was 2.8 nM.

Regarding “GGCAGGUUUGGUAUUAACACGUUAAGUCGUGG [2573-20_136]”, the IC50 (in general, the concentration at which inhibition is half-maximal) in data set [2] stood at 9.7 nM; in data set [3] (Bn-dU at 7,8,14,15,22,23,27,30, PE-dU at 9, Nap-dU at 12) it was 0.5 nM. The same sequence came in with a Kd in data set [4] of 2 nM.

In data set [1] (all U are Nap-dU), “GGUUAUGUAGCGAGUGCGUAAGGCGGUGGGCGAGGGA [2574-49_16]” had a Kd of 3.9 nM.

The sequence “GGCAGGUUUGGUAUUAACACGUUAAGUCGUGGGGUC [2573-20_3]” displayed a dissociation constant Kd in data set [1] (all U are Bn-dU) of 1.5 nM.

For the sequence “GATGTGAGTGTGTGACGAGUGGGCAGGUUUGGUAUUAACACGUUAAGUCGUGGGGUCGCACAGAGAAGAAACAAGACC [2573-20]”, the dissociation constant Kd in data set [1] (all U are Bn-dU (5-benzylcarboxamide-dU), SB17T-0.002 (125 mM NaCl, 5 mM KCl, 5 mM MgCl2), 37 C, ZORBAX capture) was 3 nM.

“GGGGUUAUGUAGCGAGUGCGUAAGGCGGUGGGCGAGG [2574-49_7]” showed a Kd in data set [1] (all U are Nap-dU) of 2.6 nM.

As for “GATGTGAGTGTGTGACGAGGGGGUUAUGUAGCGAGUGCGUAAGGCGGUGGGCGAGGGAUCACAGAGAAGAAACAAGACC [2574-49]”, the Kd in data set [1] (all U are Nap-dU (5-naphthylmethylcarboxamide-dU), SB17T-0.002 (125 mM NaCl, 5 mM KCl, 5 mM MgCl2), 37 C, ZORBAX capture) came out at 2 nM.

On to “GGCAGGUUUGGUAUUAACACGUUAAGUCGUGGGGU [2573-20_12]”, for which the dissociation constant Kd in data set [1] (all U are Bn-dU) amounted to 1.4 nM.

As to “GGGUUAUGUAGCGAGUGCGUAAGGCGGUGGGCGAGGGA [2574-49_15]”, the Kd in data set [1] (all U are Nap-dU) came out at 2.1 nM.

As for “GGGGUUAUGUAGCGAGUGCGUAAGGCGGUGG [2574-49_13]”, in data set [1] (all U are Nap-dU), the dissociation constant Kd amounted to 1.1 nM.

The sequence “GGGGUUAUGUAGCGAGUGCGUAAGGCGGUGGGC [2574-49_11]” came in with an equilibrium dissociation constant (Kd) in data set [1] (all U are Nap-dU) of 1.5 nM.

“GGGGUUAUGUAGCGAGUGCGUAAGGCGGUGGGCGAGGG [2574-49_6]” gave a dissociation constant Kd in data set [1] (all U are Nap-dU) of 3.5 nM.

Sequence “GGGGUUAUGUAGCGAGUGCGUAAGGCGGUGGG [2574-49_12]” showed a Kd in data set [1] (all U are Nap-dU) of 1.1 nM.

In the case of “GGCAGGUUUGGUAUUAACACGUUAAGUCGUGGGG [2573-20_13]”, in data set [1] (all U are Bn-dU), the Kd came out at 1.9 nM.

For the sequence “GGGGUUAUGUAGCGAGUGCGUAAGGCGGUG [2574-49_14]”, the dissociation constant (Kd) in data set [1] (all U are Nap-dU) was 0.7 nM.

Sequence “GGGGUUAUGUAGCGAGUGCGUAAGGCGGUGGGCGAG [2574-49_8]” gave a Kd in data set [1] (all U are Nap-dU) of 1.2 nM.

Take “GGCAGGUUUGGUAUUAACACGUUAAGUCGUGG [2573-20_15]”: the dissociation constant (Kd) in data set [1] (all U are Bn-dU) came out at 1 nM.

With “GGCAGGUUUGGUGUGG [2573-20_324 G-quartet fragment]”, the equilibrium dissociation constant (Kd) in data set [1] (G-G-C1-A-G-G1-Bn-Bn-Pe-G-G-Nap-C3-G-Bn-G-G (1=2'-OMe, C3=spacer), p263 states approximately 200 nM) was 270 nM.

As to “GUUAUGUAGCGAGUGCGUAAGGCGGUGGGCGAGGGA [2574-49_17]”, the Kd in data set [1] (all U are Nap-dU) stood at 17 nM.

“GGGGUUAUGUAGCGAGUGCGUAAGGCGGUGGGCGA [2574-49_9]” displayed a dissociation constant Kd in data set [1] (all U are Nap-dU) of 1.8 nM.

For “GGCAGGUUUGGUGUGG [2573-20_324 Bn7 to MBn variant]”, the Kd in data set [1] (G-G-C1-A-G-G1-MBn-Bn-Pe-G-G-Nap-C3-G-Bn-G-G (1=2'-OMe, C3=spacer), 100-fold improvement over parent stated) was 1 nM.

“GGGGUUAUGUAGCGAGUGCGUAAGGCGGUGGGCG [2574-49_10]” returned a Kd in data set [1] (all U are Nap-dU) of 1.9 nM.

“GGCAGGUUUGGUAUUAACACGUUAAGUCGUGG [2573-20_135]” showed a half-inhibitory concentration (IC50) in data set [3] (all U are Bn-dU) of 0.24 nM.

With “UUAUGUAGCGAGUGCGUAAGGCGGUGGGCGAGGGA [2574-49_18]”, in data set [1] (all U are Nap-dU), the Kd turned out to be 19 nM.

The sequence “GGGGUUAUGUAGCGAGUGCGUAAGGCGGUGGGCGAGGGA [2574-49_3]” had a Kd in data set [1] (all U are Nap-dU) of 4.1 nM.

The values above are taken from patent US20140315986.
